Where a chain is given by its changes, count along the chain named. Names may count otherwise.
T1: human GFRα3 expressed with a C-terminal mFc tag (human)
T1 construct: also called hGFRα3-mFc
T1 chain: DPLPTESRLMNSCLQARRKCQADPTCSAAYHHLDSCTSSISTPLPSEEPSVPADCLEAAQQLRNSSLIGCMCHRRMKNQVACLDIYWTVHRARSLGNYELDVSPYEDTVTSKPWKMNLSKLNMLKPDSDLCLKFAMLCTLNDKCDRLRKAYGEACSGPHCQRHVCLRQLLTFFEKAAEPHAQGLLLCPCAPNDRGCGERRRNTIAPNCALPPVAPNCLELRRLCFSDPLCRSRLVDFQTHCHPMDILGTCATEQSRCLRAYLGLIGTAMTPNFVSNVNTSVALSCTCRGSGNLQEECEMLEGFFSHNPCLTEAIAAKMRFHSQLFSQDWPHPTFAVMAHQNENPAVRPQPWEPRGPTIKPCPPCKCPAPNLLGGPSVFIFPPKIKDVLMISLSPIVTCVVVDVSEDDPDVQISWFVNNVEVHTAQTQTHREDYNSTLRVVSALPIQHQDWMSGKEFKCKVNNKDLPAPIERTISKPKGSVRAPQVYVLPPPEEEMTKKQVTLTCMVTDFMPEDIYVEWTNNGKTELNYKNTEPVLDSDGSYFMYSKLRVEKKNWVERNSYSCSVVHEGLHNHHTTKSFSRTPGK

T2: monkey GFRα3 expressed with a C-terminal myc-myc-hexahistidine tag (monkey (Mf), UniProt O60609 32-374 (human entry), limits assumed)
T2 construct: also called MfGFRα3-mmh; MfGFRα3-mmH
T2 chain: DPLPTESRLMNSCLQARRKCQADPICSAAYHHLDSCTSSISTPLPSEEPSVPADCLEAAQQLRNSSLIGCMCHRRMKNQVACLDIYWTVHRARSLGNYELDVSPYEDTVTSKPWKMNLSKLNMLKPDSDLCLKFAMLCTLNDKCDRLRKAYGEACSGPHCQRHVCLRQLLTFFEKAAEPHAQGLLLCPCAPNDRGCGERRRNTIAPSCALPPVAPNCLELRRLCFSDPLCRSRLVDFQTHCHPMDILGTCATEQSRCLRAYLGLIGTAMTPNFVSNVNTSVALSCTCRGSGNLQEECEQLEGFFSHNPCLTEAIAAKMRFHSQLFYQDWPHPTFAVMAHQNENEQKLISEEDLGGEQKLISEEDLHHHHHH

B1: H4H2344S (antibody, human IgG4, V domains shown)
VH: EVQLVESGGGVVQPGRSLRLSCAASGFSFSDYVMHWVRQAPGKGLEWVASIWFDGSNEFYADSVKGRFTISRDNSKNTLFLQMNSLRAEDTAVYYCAKKGVLVATSAFDIWGQGTMVTVSS
VL: DIQMTQSPSSLSASVGDRVTITCRASQSINNYLNWYHQKPGKAPKLLIYAASSLQSGVPSRFSGSGSGTDYTLTISSLQPEDFGNYYCQQSYRTSMYTFGQGTKVEIK
notes: human IgG4 Fc (H4H)
B2: H4H2293P (antibody, human IgG4, V domains shown)
VH: B1 VH with E1Q, F59L, D109H
VL: B1 VL with D1A, S28N, K45N, R93S, V105L
notes: human IgG4 Fc (H4H)
B3: H4H2354S (antibody, human IgG4, V domains shown)
VH: B1 VH with E1Q
VL: B1 VL with M4L
notes: human IgG4 Fc (H4H); also called H4H2354S-1
B4: H4H2346S (antibody, human IgG4, V domains shown)
VH: B1 VH with E1Q
VL: B1 VL with D1E, Q3V
notes: human IgG4 Fc (H4H)
B5: H4H2291S (antibody, human IgG4, V domains shown)
VH: EVQLVESGGGLVQPGESLRLSCAASGFTFSNYAMSWVRQAPGKGLEWVSVISGSGGSTYYADSVKGRFTMSRDNSKNTLYLQMNSLRAEDTAVYYCAKPPSRAARYFNYGMDVWGQGTTVTVSS
VL: AIRMTQSPSSVSASVGDRVTITCRASQGISSWLAWYQQKPGKAPKLLIYAASSLQSGVPSRFSGSGSGTDFTLTISSLQPEDFATYYCQQANSFPFTFGGGTKVEIK
notes: human IgG4 Fc (H4H)
B6: H4H2364S (antibody, human IgG4, V domains shown)
VH: EVQLVESGGGLEQPGGSLRLSCAASGFTFSSYVMSWVRQVPGKGLEWVSVISGSGGSTYYADSVKGRFTISRDNSKNTLYLQMNSLRAEDTAVYYCAKPSSYSSSNFHYGMDVWGQGTTVTVSS
VL: B5 VL with A1D, R3Q, S9Y, K42R, Q90K, A91T, G100P
notes: human IgG4 Fc (H4H)
B7: H4H2341S (antibody, human IgG4, V domains shown)
VH: EVQLVESGAEVKKSGSSVKVSCKASGGTFSRYAISWVRQAPGQGLEWMGGIIPLFGTLNYAQKFQGRVTLTTDESTSTAYMELSSLRSEDTAVYYCAVFYYGSGSYRNWFDPWGQGTLVTVSS
VL: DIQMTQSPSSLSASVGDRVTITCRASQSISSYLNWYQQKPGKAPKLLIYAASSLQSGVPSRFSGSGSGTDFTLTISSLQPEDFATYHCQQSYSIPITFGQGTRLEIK
notes: human IgG4 Fc (H4H)
B8: H4H2345S (antibody, human IgG4, V domains shown)
VH: EVQLVESGGGLVRPGRSLRLSCAASGFTFDNYAMHWVRQVPGKGLEWVSGITWNSVSLGYADSVKGRFTISRDNAQNSLYLQMNSLRTVDTALYYCAKDRWGGSYYFDFWGQGTLVTVSS
VL: DIVMTQSPSSLSASVGDRVTITCRASQGISNYLAWYQQKPGKVPKLLIYSASTLQSGVPSRFSGSGSGTDFTLTISNLQPEDFATFFCQKYNSAPTFGGGTKVEIK
notes: human IgG4 Fc (H4H)
B9: H4H2212N (antibody, human IgG4, V domains shown)
VH: EVQLLESGGGLVQPGGSLRLSCAASGFTFSSYAMSWVRQGPGKGLEWVSGISGSGGSTYNADSVKGRFTISRDNSKNTLYLQMNSLRAEDTAVYYCAKDSGTYWYYFDYWGQGILVTVSS
VL: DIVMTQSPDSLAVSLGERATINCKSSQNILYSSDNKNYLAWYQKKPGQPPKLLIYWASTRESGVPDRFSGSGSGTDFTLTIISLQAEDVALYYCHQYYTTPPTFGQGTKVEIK
notes: human IgG4 Fc (H4H)
B10: H4H2236N3 (antibody, human IgG4, V domains shown)
VH: EVQLLESGGNLVQPGGSLRLSCAASGFTFSSYAMTWVRQAPGKGLEWVSTISGSGTSTYYADSVKGRFTISRDNSRDTVFLQMNSLRAEDTAVYYCSKPSALRFLHWLAMDVWGQGTLVTVSS
VL: DIQMTQSPSSLSAFVGDRVTITCRASQDIRNYLDWFQQKPGKAPKSLIYAASNLQSGVPSRFGGSGSGTDFTLTINSLQPEDFVTYYCQQYNSYPPTFGGGTKVEIK
notes: human IgG4 Fc (H4H)
B11: H4H2243N2 (antibody, human IgG4, V domains shown)
VH: QVQLVQSGAEVKKPGASVKVSCKASGYTFTSYGIIWVRQAPGQGLEWMGWISGYNGNTNYAQNLQGRVTMTTDTSTTTAYMELRSLRSDDTAVYYCARWGIATRPYYYYGMDVWGQGTTVTVSS
VL: B10 VL with F14S, R30T, D34A, N53S, R61K, G63S, N76S, V84A, G100P, E105D
notes: human IgG4 Fc (H4H)

Target: T1, human GFRα3 expressed with a C-terminal …
Test: SPR, Ab captured, 37C
Method: (§1) Antibodies were tested for binding to human GFRα3 expressed with either a C-terminal myc-myc-hexahistidine tag (hGFRα3-mmh; SEQ ID: 370, a C-terminal hFc tag (hGFRα3-hFc; SEQ ID:371), or a C-terminal mFc tag (hGFRα3-mFc; SEQ ID:372), as well as monkey GFRα3 expressed with a C-terminal myc-myc-hexahistidine tag (MfGFRα3-mmh; SEQ ID:373). Anti-GFRα3 antibodies were captured on either a goat anti-mouse IgG polyclonal antibody (GE Healthcare, #BR-1008-38) or a mouse anti-human IgG monoclonal antibody (GE Healthcare, #BR-1008-39) surface created through direct amine coupling to a Biacore CM5 sensor chip. Kinetic experiments were carried out using HBS-EP (10 mM HEPES, 150 mM NaCl, 3 mM EDTA, 0.05% Surfactant P20, at pH 7.4) or PBS buffer containing 0.05% v/v surfactant P20 as both the running buffer and the sample buffer. Binding to human GFRα3-mmh or monkey GFRα3-mmh was evaluated by injecting several concentrations ranging from 200 to 7.4 nM (3-fold dilutions) across the captured antibody surface. Binding to human GFRα3-mFc or human GFRα3-hFc was evaluated by injecting several concentrations ranging from 100 to 3.7 nM (3-fold dilutions) across the captured antibody surface. Antibody-antigen association was monitored for up to 4 minutes, while dissociation in buffer was monitored for up to 20 minutes. Kinetic association (kₐ) and dissociation (kd) rate constants were determined by processing and fitting the data to a 1:1 binding model using Scrubber 2.0c curve fitting software. Binding dissociation equilibrium constants (KD) and dissociative half-lives (t_{1/2}) were calculated from the kinetic rate constants as: KD (M)=kd/kₐ and t_{1/2} (min)=[ln 2/(60*kd)].

| Kd [nM] | koff [s⁻¹] | kon [M⁻¹ s⁻¹] | t1/2 [h] | Binder |
| --- | --- | --- | --- | --- |
| 0.0891 | 8.96e-05 | 1.01e+06 | 2.15 | B1 |
| 0.0299 | 5.13e-05 | 1.71e+06 | 3.75 | B2 |
| 0.0895 | 9.11e-05 | 1.02e+06 | 2.12 | B3 |
| 0.0781 | 0.000137 | 1.75e+06 | 1.4 | B4 |
| 0.0289 | 3.84e-05 | 1.33e+06 | 5.02 | B5 |
| 0.0328 | 4.14e-05 | 1.26e+06 | 4.65 | B6 |
| 0.0789 | 7.58e-05 | 961000 | 2.53 | B7 |
| 0.106 | 7.44e-05 | 700000 | 2.58 | B8 |

Target: T2, monkey GFRα3 expressed with a …
Test: SPR, Ab captured, 37C
Method: as §1

| Kd [nM] | koff [s⁻¹] | kon [M⁻¹ s⁻¹] | t1/2 [h] | Binder |
| --- | --- | --- | --- | --- |
| 3.57 | 0.000575 | 161000 | 0.333 | B1 |
| 0.358 | 0.000158 | 441000 | 1.22 | B2 |
| 2.78 | 0.000435 | 157000 | 0.45 | B3 |
| 3.34 | 0.000511 | 153000 | 0.383 | B4 |
| 1.94 | 0.000693 | 357000 | 0.283 | B5 |
| 5.14 | 0.000861 | 168000 | 0.217 | B6 |
| 3.53 | 0.000508 | 144000 | 0.383 | B7 |
| 26.3 | 0.00353 | 134000 | 0.05 | B8 |

Each binder was assayed against T3, human GFRα3 expressed with a C-terminal myc-myc-hexahistidine tag (human, UniProt O60609 32-374, biotinylated (sites not given) in ELISA format 2 and in the Octet cross-competition; not in SPR) (assay: Octet cross-competition; biotin-hGFRα3-mmH pre-saturated with first antibody H4H2342P).
T3 construct: also called hGFRα3-mmh; hGFRα3-mmH
Method: (§2) A cross-competition assay was conducted to assess the ability of select antibodies to compete with one another for binding to human GFRα3 using an Octet RED384 biosensor (Fortebio Inc.). The entire experiment was performed at 25° C. with the flow rate of 1000 rpm in Octet HBST buffer (0.01 M HEPES pH7.4, 0.15M NaCl, 3 mM EDTA, 0.05% v/v Surfactant P20, 0.1 mg/mL BSA). To assess whether 2 antibodies were able to compete with one another for binding to their respective epitopes on biotinylated recombinant human GFRα3 expressed with a C-terminal myc-myc-hexahistidine tag (biotin-hGFRα3-mmH; SEQ ID:370), around ˜1.2 nm of biotin-hGFRα3-mmH was first captured onto streptavidin-coated Octet sensor tips (Fortebio Inc, #18-5019) by submerging the tips for 1 minute into a 10 μg/mL solution of biotin-hGFRα3-mmH. The antigen coated sensor tips were then placed into wells containing 25 μg/mL solution of a first anti-GFRα3 monoclonal antibody for 4 minutes to saturate the biotin-hGFRα3-mmH surface. The sensor tips were then subsequently dipped into wells containing 25 μ/mL solution of a second anti-GFRα3 monoclonal antibody. The sensor tips were washed in Octet HBST buffer in between every step of the experiment. The real-time binding response was monitored during the course of the experiment and the binding response at the end of every step was recorded as shown in FIG. 9. The response of mAb-2 binding to biotin-hGFRα3-mmH pre-complexed with the first antibody was compared and competitive/non-competitive behavior of different anti-GFRα3 monoclonal antibodies was determined.

| binding response of second antibody (nm) | Binder |
| --- | --- |
| 0.45 | B5 |
| 1.76 | B9 |
| 0.2 | B10 |
| 0.11 | B11 |

The binders below were run against T3, human GFRα3 expressed with a C-terminal … (assay: Octet cross-competition; biotin-hGFRα3-mmH pre-saturated with first antibody H4H2357S).
Method: as §2

| binding response of second antibody (nm) | Binder |
| --- | --- |
| 0.18 | B5 |
| 1.9 | B9 |
| 0.04 | B10 |
| 0.01 | B11 |
